Measurements taken from US9981005 (dated 2018).
Like-named read-outs stand apart in the source and are kept apart here. Where no end group is shown, it is not given here. [ ]: non-standard residue; d: D form. pT = C[C@@H](OP(=O)(O)O)[C@H](N)C(=O)O; pS = N[C@@H](COP(=O)(O)O)C(=O)O; Flu = fluorescein

Tests used:
[1] = molecular target: T1, Skp1-FBXW7 complex (human FBXW7 residues 263-707 with truncated Skp1) (UniProt P63208 1-163)
[2] = molecular target: T1, Skp1-FBXW7 complex (human FBXW7 …); test: fluorescence polarisation

| Binder | Kd [1] [nM] | Kd [2] [nM] |
| --- | --- | --- |
| Flu-VPP[pT]PPGSH [Flu-VPPpTPPGSH (singly phosphorylated fluorescein-tagged DISC1 phosphodegron peptide)] | 2300 |  |
| AKKAMLSEQNRASPLPSGLLTPPQSGKKQSS (other) [Cyclin E (test agent of the FP assay)] |  | 2000 |
| Flu-VPP[pT]PPG[pS]H [Flu-VPPpTPPGpSH (doubly phosphorylated fluorescein-tagged DISC1 phosphodegron peptide)] | 1200 |  |
